What was measured:
[1] = tested on: CC(=O)CC(=O)SCCNC(=O)CCNC(=O)[C@H](O)C(C)(C)COP(=O)(O)OP(=O)(O)OC[C@H]1O[C@@H](n2cnc3c(N)ncnc32)[C@H](O)[C@@H]1OP(=O)(O)O; test: purified protein; settings: 0.1 M Tris-HCl pH 8.0, 2 mM DTNB, 2 µM enzyme, substrate up to 1 mM
[2] = tested on: CCCC(=O)Oc1ccc2c(C)cc(=O)oc2c1; test: purified protein; settings: 50 mM Tricine, 0.01% Triton X-100; 2 µM enzyme; substrate up to 8 µM

Substance “PqsE (Pseudomonas aeruginosa UCBPP-PA14)” has a Km [1] of 3200 ± 200 µM, a kcat [1] of 0.438 ± 0.05 s⁻¹ and a kcat/Km [1] of 140 M⁻¹ s⁻¹. For the same substance, the Km [2] was 8.1 ± 0.1 µM, the kcat [2] was 0.0197 ± 0.09 s⁻¹ and the kcat/Km [2] was 2400 M⁻¹ s⁻¹.

From publication PMC12077149, “Evolution of PqsE as a Pseudomonas aeruginosa-specific regulator of LuxR-type receptors: insights from Pseudomonas and Burkholderia” (mBio, 2025)
